Data taken from patent publication US20210145976A1 (ARO BIOTHERAPEUTICS, published 2021).

Legend:
[1] = biological target: T1, recombinant biotinylated CD71 extracellular domain (Sino Biologics) with an N-terminal 6His tag (human, UniProt P02786 89-760, biotinylated (sites not given)); experiment: screening ELISA
T1 construct: extracellular domain; also called hCD71; huCD71

[2] = biological target: T1, recombinant biotinylated CD71 …; experiment: screening ELISA, ratio

T1 sequence (P02786 other isoform, or with tags, fused parts or gaps): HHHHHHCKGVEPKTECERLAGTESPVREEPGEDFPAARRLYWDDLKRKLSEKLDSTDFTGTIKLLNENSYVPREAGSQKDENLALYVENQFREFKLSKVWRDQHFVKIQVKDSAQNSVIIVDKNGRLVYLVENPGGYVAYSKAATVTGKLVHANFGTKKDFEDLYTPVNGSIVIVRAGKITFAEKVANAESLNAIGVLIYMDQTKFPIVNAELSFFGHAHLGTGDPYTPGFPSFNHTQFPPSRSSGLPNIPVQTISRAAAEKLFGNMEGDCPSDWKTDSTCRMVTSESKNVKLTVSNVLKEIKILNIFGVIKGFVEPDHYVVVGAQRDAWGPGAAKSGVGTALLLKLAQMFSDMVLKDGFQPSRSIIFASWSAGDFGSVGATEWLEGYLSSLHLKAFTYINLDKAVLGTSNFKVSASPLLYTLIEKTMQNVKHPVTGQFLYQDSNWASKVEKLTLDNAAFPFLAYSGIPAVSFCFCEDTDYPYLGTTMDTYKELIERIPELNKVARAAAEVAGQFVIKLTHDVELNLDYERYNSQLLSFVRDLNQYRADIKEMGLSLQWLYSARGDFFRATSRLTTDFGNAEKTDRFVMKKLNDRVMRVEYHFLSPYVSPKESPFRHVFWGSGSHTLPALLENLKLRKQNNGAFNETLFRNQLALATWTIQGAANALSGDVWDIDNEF

| Binder | hCD71 [1] | hCD71:HSA [2] |
| --- | --- | --- |
| SEQ ID NO 167 (designed binder, FN3 domain) MLPAPKNLVVSRVTEDSARLSWTAPDAAFDSFFIGYLEPQPPGEAIVLTVPGSERSYDLTGLKPGTEYNVTIQGVKGGTPSEPLSAIFTT | 2.62e+06 | 727 |
| SEQ ID NO 169 (designed binder, FN3 domain) MLPAPKNLVVSRVTEDSARLSWTAPDAAFDSFFIGYLEPQPPGEAIVLTVPGSERSYDLTGLKPGTEYNVTIQGVKGGFPSVPLSAIFTT | 2.85e+06 | 1060 |
| SEQ ID NO 170 (designed binder, FN3 domain) MLPAPKNLVVSRVTEDSARLSWTAPDAAFDSFFIGYPEYPATGEAIVLTVPGSERSYDLTGLKPGTEYFVDINGVKGGSLSYPLSAIFTT | 982000 | 58 |
| SEQ ID NO 175 (designed binder, FN3 domain) MLPAPKNLVVSRVTEDSARLSWTAPDAAFDSFFIGYLEPQPPGEAIVLTVPGSERSYDLTGLKPGTEYSVVIQGVKGGFPSDPLSAIFTT | 3.55e+06 | 2220 |
| SEQ ID NO 176 (designed binder, FN3 domain) MLPAPKNLVVSRVTEDSARLSWTAPDAAFDSFPIAYAEPRPDGEAIVLTVPGSERSYDLTGLKPGTEYSVGIHGVKGGHDSSPLSAIFTT | 1.34e+06 | 129 |
| SEQ ID NO 177 (designed binder, FN3 domain) MLPAPKNLVVSRVTEDSARLSWTAPDAAFDSFFIGYLEPQPPGEAIVLTVPGSERSYDLTGLKPGTEYNVTIQGVKGGRASGPLSAIFTT | 2.61e+06 | 1060 |
| SEQ ID NO 178 (designed binder, FN3 domain) MLPAPKNLVVSRVTEDSARLSWTAPDAAFDSFDIAYAEPIPRGEAIVLTVPGSERSYDLTGLKPGTEYSVLIHGVKGGRRSVPLSAIFTT | 1.45e+06 | 644 |
| SEQ ID NO 179 (designed binder, FN3 domain) MLPAPKNLVVSRVTEDSARLSWTAPDAAFDSFYIAYAEPRPDGEAIVLTVPGSERSYDLTGLKPGTEYPVPIPGVKGGPGSSPLSAIFTT | 2.68e+06 | 36 |
| SEQ ID NO 180 (designed binder, FN3 domain) MLPAPKNLVVSRVTEDSARLSWTAPDAAFDSFEISYYEMRGYGEAIVLTVPGSERSYDLTGLKPGTEYSVLIHGVEGGDYSSPLSAISTT | 1.68e+06 | 50 |
| SEQ ID NO 181 (designed binder, FN3 domain) MLPAPKNLVVSHVTEDSARLSWTAPDAAFDSFPIAYAEPRPDGEAIVLTVPGSERSYDLTGLKPGTEYSVLIHGVKGGLLSSPLSAIFTT | 2.95e+06 | 491 |
| SEQ ID NO 182 (designed binder, FN3 domain) MLPAPKNLVVSRVTEDSARLSWTAPDAAFDSFFIGYLEPYPPGEAIVLTVPGSERSYDLTGLKPGTEYVVSIQGVKGGTPSQPLSAIFTT | 3.12e+06 | 1060 |
| SEQ ID NO 183 (designed binder, FN3 domain) MLPAPKNLVVSRVTEDSARLSWTAPDAAFDSFLIPYAETSPSGEAIVLTVPGSERSYDLTGLKPGTEYSVLIHGVKGGRPSNPLVAAFTT | 1.72e+06 | 161 |
| SEQ ID NO 185 (designed binder, FN3 domain) MLPAPKNLVVSRVTEDSARLSWTAPDAAFDSFEIDYDELAIYGEAIVLTVPGSERSYDLTGLKPGTEYGVMIIGVKGGLPSDPLSAIFTT | 1.81e+06 | 182 |
| SEQ ID NO 187 (designed binder, FN3 domain) MLPAPKNLVVSRVTEDSARLSWTAPDAAFDSFVIEYFEFVGYGEAIVLTVPGSERSYDLTGLKPGTEYSVGIYGVKGGKLSPPLSAIFTT | 3.06e+06 | 422 |
| SEQ ID NO 188 (designed binder, FN3 domain) MLPAPKNLVVSRVTEDSARLSWTAPDAAFDSFLIPYAETSPSGEAIVLTVPGSERSYDLTGLKPGTEYSVLIHGVKGGKLSLPLSAIFTT | 2.67e+06 | 797 |
| SEQ ID NO 192 (designed binder, FN3 domain) MLPAPKNLVVSRVTEDSARLSWTALDAAFDSFFIGYLEPQPPGEAIVLTVPGSERSYDLTGLKPGTEYNVTIQGVKGGFPSMPLSAIFTT | 2.67e+06 | 650 |
| SEQ ID NO 193 (designed binder, FN3 domain) MLPAPKNLVVSRVTEDSARLSWTAPDAAFDSFTIWYAEAVGNGEAIVLTVPGSERSYDLTGLKPGTEYWVDIWGVKGGEFSSPLSAIFTT | 3.87e+06 | 1550 |
| SEQ ID NO 195 (designed binder, FN3 domain) MLPAPKNLVVSRVTEDSARLSWTAPDAAFDSFPIEYDEIPFWGEAIVLTVPGSERSYDLTGLKPGTEYRVWIHGVKGGNSSWPLSAIFTT | 2.53e+06 | 28 |

| Binder | hCD71 [1] | hCD71:HSA [2] |
| --- | --- | --- |
| SEQ ID NO 198 (designed binder, FN3 domain) MLPAPKNLVVSRVTEDSARLSWTAPDAAFDSFLIAYNEDRKFGEAIVLTVPGSERSYDLTGLKPGTEYDVWIEGVKGGSLSFPLSAIFTT | 3.44e+06 | 1130 |
| SEQ ID NO 200 (designed binder, FN3 domain) MLPAPKNLVVSRVTEDSARLSWTAPDAAFDSFYIEYYEWMHTGEAIVLTVPGSERSYDLTGLKPGTEYSVYIYGVKGGYPSSPLSAIFTT | 3.63e+06 | 1730 |
| SEQ ID NO 202 (designed binder, FN3 domain) MLPAPKNLVVSRVTEDSARLSWTAPDAAFDSFYIDYLELTYSGEAIVLTVPGSERSYDLTGLKPGTEYYVYIYGVKGGYPSSPLSAIFTT | 4.5e+06 | 1610 |
| SEQ ID NO 205 (designed binder, FN3 domain) MLPAPKNLVVSRVTEDSARLSWTAPDAAFDSFDIDYDEPAWNGEAIVLTVPGSERSYDLTGLKPGTEYRVFIYGVKGGNTSWPLSAIFTT | 434000 | 130 |
| SEQ ID NO 207 (designed binder, FN3 domain) MLPAPKNLVVSRVTEDSARLSWTAPDAAFDSFFIGYLEPQPPGEAIVLTVPGSERSYDLTGLKPGTEYNVTIQGVKGGTPSEPLSAISTT | 1.6e+06 | 62 |
| SEQ ID NO 210 (designed binder, FN3 domain) MLPAPKNLVVSRVTEDSARLSWTAPDAAFDSFSIVYGERFVNGEAIVLTVPGSERSYDLTGLKPGTEYHVYIDGVKGGDLSWPLSAIFTT | 1.16e+06 | 514 |
| SEQ ID NO 211 (designed binder, FN3 domain) MLPAPKNLVVSRVTEDSARLSWTAPDAAFDSFWINYYEAQPDGEAIVLTVPGSERSYDLTGLKPGTEYDVEIAGVKGGTASLPLSAIFTT | 1e+06 | 334 |
| SEQ ID NO 215 (designed binder, FN3 domain) MLPAPKNLVVSRVTEDSARLSWTAPDAAFDSFLIPYAETSPTGEAIVLTVPGSERSYDLTGLKPGTEYSVLIHGVKGGYPSSPLSAIFTT | 2.13e+06 | 1210 |
| SEQ ID NO 216 (designed binder, FN3 domain) MLPAPKNLVVSRVTEDSARLSWTAPDAAFDSFPIAYAEPTPSGEAIVLTVPGSERSYDLTGLKPGTEYSVLIHGVKGGGLSLPLSAIFTT | 2.19e+06 | 101 |
| SEQ ID NO 219 (designed binder, FN3 domain) MLPAPKNLVVSRVTEDSARLSWTAPDAAFDSFHIDYLELTYAGEAIVLTVPGSERSYDLTGLKPGTEYYVTIYGVKGGYPSSPLSAIFTT | 3.31e+06 | 1270 |
| SEQ ID NO 223 (designed binder, FN3 domain) MLPAPKNLVVSRVTEDSARLSWTAPDAAFDSFTIWYAEALGDGEAIVLTVPGSERSYDLTGLKPGTEYFVDIPGVKGGTRSSPLSAISTT | 1.67e+06 | 32 |
| SEQ ID NO 228 (designed binder, FN3 domain) MLPAPKNLVVSRVTEDSARLSWTAPDAAFDSFEIYYVEWSEAGEAIVLTVPGSERSYDLTGLKPGTEYRVEIRGVKGGSWSSPLSAIFTT | 2.54e+06 | 1060 |
| SEQ ID NO 236 (designed binder, FN3 domain) MLPAPKNLVVSRVTEDSARLSWTAPDAAFDSFWIEYYEELGSGEAIVLTVPGSERSYDLTGLKPGTEYRVYIYGVKGGYPSSPLSAIFTT | 3.44e+06 | 2300 |
| SEQ ID NO 240 (designed binder, FN3 domain) MLPAPKNLVVSRVTEDSARLSWTAPDAAFDSFRIKYLEWWLGGEAIVLTVPGSERSYDLTGLKPGTEYWVDIQGVKGGVLSWPLSAIFTT | 3.03e+06 | 1480 |
| SEQ ID NO 243 (designed binder, FN3 domain) MLPAPKNLVVSRVTEDSARLSWTAPDAAFDSFAIPYYEWVNHGEAIVLTVPGSERSYDLTGLKPGTEYPVGIDGVKGGGPSWPLSAIFTT | 2.4e+06 | 237 |
| SEQ ID NO 245 (designed binder, FN3 domain) MLPAPKNLVVSRITEDSARLSWTAPDAAFDSFGIAYNEGDHYGEAIVLTVPGSERSYDLTGLKPGTEYSVWIEGVKGGNLSYPLSAIFTT | 2.62e+06 | 903 |
| SEQ ID NO 246 (designed binder, FN3 domain) MLPAPKNLVVSRVTEDSARLSWTAPDAAFDSFTIAYNEQNHYGEAIVLTVPGSERSYDLTGLKPGTEYGVWIEGVKGGTLSWPLSAIFTT | 1.57e+06 | 1120 |
| SEQ ID NO 250 (designed binder, FN3 domain) MLPAPKNLVVSRVTEDSARLSWTAPDAAFDSFFIGYLEPYPPGEAIVLTVPGSERSYDLTGLKPGTEYAVEIAGVKGGLLSSPLSAISTT | 1.09e+06 | 58 |
